The numbers were not newly measured in PMC3526765, which cites them from elsewhere.

This data set has as its target Cys30 (UniProt position 49, FFSFFCPHCYQ). Particulars: reduced DsbA (free Cys30 thiol/thiolate); inferred from context, not stated explicitly.

As usually defined, the pKa is the pH at which an ionisable group is half protonated. For “Thiol:disulfide interchange protein DsbA (EcDsbA) (Escherichia coli (K12))”, the pKa is on record as about 3.3.
